Results reported in patent US12099068B2, “Biomarkers for graft-versus-host disease” (Incyte Corporation, priority 2018, dated 2024).

System: plasma proteins
Experiment: Plasma proteins modulated between baseline and day 28 in responders (CR, VGPR, PR; n = 19), Example 6 (Table 13)
Assay type: in vivo, human
Conditions: plasma protein (OLINK NPX); responders (CR, VGPR, PR; n = 19); itacitinib 200 mg or 300 mg QD with corticosteroids; day 28 vs baseline
Method in brief: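 Plasma at baseline/screening and day 28 profiled for >1000 proteins by OLINK proximity extension assay, reported as NPX (log2). Steroid-naive and steroid-refractory patients pooled. Paired and unpaired t tests, ANOVA and Pearson correlation applied; significance at P<0.05.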

Molecule	Fold Change, Decreased Expression from Baseline to Day 28
SEMA7A (protein, UniProt O75326 45-648, looked up) Semaphorin-7A: QGHLRSGPRIFAVWKGHVGQDRVDFGQTEPHTVLFHEPGSSSVWVGGRGKVYLFDFPEGKNASVRTVNIGSTKGSCLDKRDCENYITLLERRSEGLLACGTNARHPSCWNLVNGTVVPLGEMRGYAPFSPDENSLVLFEGDEVYSTIRKQEYNGKIPRFRRIRGESELYTSDTVMQNPQFIKATIVHQDQAYDDKIYYFFREDNPDKNPEAPLNVSRVAQLCRGDQGGESSLSVSKWNTFLKAMLVCSDAATNKNFNRLQDVFLLPDPSGQWRDTRVYGVFSNPWNYSAVCVYSLGDIDKVFRTSSLKGYHSSLPNPRPGKCLPDQQPIPTETFQVADRHPEVAQRVEPMGPLKTPLFHSKYHYQKVAVHRMQASHGETFHVLYLTTDRGTIHKVVEPGEQEHSFAFNIMEIQPFRRAAAIQTMSLDAERRKLYVSSQWEVSQVPLDLCEVYGGGCHGCLMSRDPYCGWDQGRCISIYSSERSVLQSINPAEPHKECPNPKPDKAPLQKVSLAPNSRYYLSCPMESRHATYSWRHKENVEQSCEPGHQSPNCILFIENLTAQQYGHYFCEAQEGSYFREAQHWQLLPEDGIMAEHLLGHACALA	−1.1335
FASLG (protein, UniProt P48023 130-281, looked up) Tumor necrosis factor ligand …: QIGHPSPPPEKKELRKVAHLTGKSNSRSMPLEWEDTYGIVLLSGVKYKKGGLVINETGLYFVYSKVYFRGQSCNNLPLSHKVYMRNSKYPQDLVMMEGKMMSYCTTGQMWARSSYLGAVFNLTSADHLYVNVSELSLVNFEESQTFFGLYKL	−1.3614
MATN3 (protein, UniProt O15232 29-486, looked up) Matrilin-3: DPVARPGFRRLETRGPGGSPGRRPSPAAPDGAPASGTSEPGRARGAGVCKSRPLDLVFIIDSSRSVRPLEFTKVKTFVSRIIDTLDIGPADTRVAVVNYASTVKIEFQLQAYTDKQSLKQAVGRITPLSTGTMSGLAIQTAMDEAFTVEAGAREPSSNIPKVAIIVTDGRPQDQVNEVAARAQASGIELYAVGVDRADMASLKMMASEPLEEHVFYVETYGVIEKLSSRFQETFCALDPCVLGTHQCQHVCISDGEGKHHCECSQGYTLNADKKTCSALDRCALNTHGCEHICVNDRSGSYHCECYEGYTLNEDRKTCSAQDKCALGTHGCQHICVNDRTGSHHCECYEGYTLNADKKTCSVRDKCALGSHGCQHICVSDGAASYHCDCYPGYTLNEDKKTCSATEEARRLVSTEDACGCEATLAFQDKVSSYLQRLNTKLDDILEKLKINEYGQIHR	−1.3384
CEACAM8 (protein, UniProt P31997 35-320, looked up) Cell adhesion molecule CEACAM8: QLTIEAVPSNAAEGKEVLLLVHNLPQDPRGYNWYKGETVDANRRIIGYVISNQQITPGPAYSNRETIYPNASLLMRNVTRNDTGSYTLQVIKLNLMSEEVTGQFSVHPETPKPSISSNNSNPVEDKDAVAFTCEPETQNTTYLWWVNGQSLPVSPRLQLSNGNRTLTLLSVTRNDVGPYECEIQNPASANFSDPVTLNVLYGPDAPTISPSDTYYHAGVNLNLSCHAASNPPSQYSWSVNGTFQQYTQKLFIPNITTKNSGSYACHTTNSATGRNRTTVRMITVSD	−1.6177
FCRL6 (protein, UniProt Q6DN72 20-434, looked up) Fc receptor-like protein 6: LYLQAWPNPVFEGDALTLRCQGWKNTPLSQVKFYRDGKFLHFSKENQTLSMGAATVQSRGQYSCSGQVMYIPQTFTQTSETAMVQVQELFPPPVLSAIPSPEPREGSLVTLRCQTKLHPLRSALRLLFSFHKDGHTLQDRGPHPELCIPGAKEGDSGLYWCEVAPEGGQVQKQSPQLEVRVQAPVSRPVLTLHHGPADPAVGDMVQLLCEAQRGSPPILYSFYLDEKIVGNHSAPCGGTTSLLFPVKSEQDAGNYSCEAENSVSRERSEPKKLSLKGSQVLFTPASNWLVPWLPASLLGLMVIAAALLVYVRSWRKAGPLPSQIPPTAPGGEQCPLYANVHHQKGKDEGVVYSVVHRTSKRSEARSAEFTVGRKDSSIICAEVRCLQPSEVSSTEVNMRSRTLQEPLSDCEEVLC	−1.3556
